The values that follow come from patent publication US20080241166A1.

For the test, the target named is hen egg lysozyme (hen) (UniProt P00698). Nature of the test: ELISA on coated HEL (3 mg/ml); detection via the myc tag with 9e10 and anti mouse IgG-HRP. (An ELISA detects its analyte on a solid surface through an enzyme-linked reagent.)
hen egg lysozyme (hen), sequence (P00698 19-147): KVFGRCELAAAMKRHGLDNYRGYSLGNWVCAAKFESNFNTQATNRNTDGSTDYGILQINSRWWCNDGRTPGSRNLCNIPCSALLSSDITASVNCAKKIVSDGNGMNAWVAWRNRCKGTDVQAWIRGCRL

B1: VHCκ chain expressed alone (TAR2-5-Cκ) (protein, not shown: small tags and cut ends)
chain: EVQLLESGGGLVQPGGSLRLSCAASGFTFDLYNMFWVRQAPGKGLEWVSFISQTGRLTWYADSVKGRFTISRDNSKNTLYLQMNSLRAEDTAVYYCAKTLEDFDYWGQGTLVTVSS
As for B1, the ELISA signal (background) came to 0.069.
